{"source": "paper PMC9313427", "about": "“Identification and Characterization of an RRM-Containing, RNA Binding Protein in Acinetobacter baumannii”", "settings_in_all_cases": "protein: recombinant; tags: C-terminal 6xHis; label: 5'-biotin; single strand", "key": {"rAB-Elavl [1]": {"biological_target": "T1, rAB-Elavl (Acinetobacter baumannii, UniProt D0CAL6 1-86)", "T1 sequence": "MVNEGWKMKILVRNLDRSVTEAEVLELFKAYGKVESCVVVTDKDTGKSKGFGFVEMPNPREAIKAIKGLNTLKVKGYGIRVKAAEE", "test": "AlphaScreen saturation (probe length series); EC50; unit implied; named ARE pos 29 nt in text; AlphaScreen: 25 mM HEPES pH 7.4, 100 mM NaCl, 0.1% BSA, RT; REMSA: 20 mM HEPES pH 7.5, 50 mM KCl, 450 uM BSA, 0.25% glycerol, RT (gel at 4 C); NMR: 20 mM HEPES"}, "rAB-Elavl [2]": {"biological_target": "T1, rAB-Elavl", "test": "HTRF-FRET saturation; EC50; AlphaScreen: 25 mM HEPES pH 7.4, 100 mM NaCl, 0.1% BSA, RT; REMSA: 20 mM HEPES pH 7.5, 50 mM KCl, 450 uM BSA, 0.25% glycerol, RT (gel at 4 C); NMR: 20 mM HEPES"}, "rAB-Elavl [3]": {"biological_target": "T1, rAB-Elavl", "test": "AlphaScreen time-course kinetics (koff/kon); koff 0.02687 min-1; kon printed as 2.035 M-1 min-1 (exponent apparently lost); AlphaScreen: 25 mM HEPES pH 7.4, 100 mM NaCl, 0.1% BSA, RT; REMSA: 20 mM HEPES pH 7.5, 50 mM KCl, 450 uM BSA, 0.25% glycerol, RT (gel at 4 C); NMR: 20 mM HEPES"}, "rAB-Elavl [4]": {"biological_target": "T1, rAB-Elavl", "test": "AlphaScreen saturation; EC50, probe titrated, 500 nM protein; conflicts with 35.62 nM in Fig 8C; AlphaScreen: 25 mM HEPES pH 7.4, 100 mM NaCl, 0.1% BSA, RT; REMSA: 20 mM HEPES pH 7.5, 50 mM KCl, 450 uM BSA, 0.25% glycerol, RT (gel at 4 C); NMR: 20 mM HEPES"}, "rAB-Elavl [5]": {"biological_target": "T1, rAB-Elavl", "test": "AlphaScreen saturation; EC50, probe titrated, 500 nM protein; AlphaScreen: 25 mM HEPES pH 7.4, 100 mM NaCl, 0.1% BSA, RT; REMSA: 20 mM HEPES pH 7.5, 50 mM KCl, 450 uM BSA, 0.25% glycerol, RT (gel at 4 C); NMR: 20 mM HEPES"}, "rAB-Elavl [6]": {"biological_target": "T1, rAB-Elavl", "test": "HTRF-FRET saturation; EC50; unit implied; legend: not well bound; AlphaScreen: 25 mM HEPES pH 7.4, 100 mM NaCl, 0.1% BSA, RT; REMSA: 20 mM HEPES pH 7.5, 50 mM KCl, 450 uM BSA, 0.25% glycerol, RT (gel at 4 C); NMR: 20 mM HEPES"}, "rAB-Elavl [7]": {"biological_target": "T1, rAB-Elavl", "test": "AlphaScreen saturation (probe length series); EC50; unit implied; AlphaScreen: 25 mM HEPES pH 7.4, 100 mM NaCl, 0.1% BSA, RT; REMSA: 20 mM HEPES pH 7.5, 50 mM KCl, 450 uM BSA, 0.25% glycerol, RT (gel at 4 C); NMR: 20 mM HEPES"}, "rAB-Elavl [8]": {"biological_target": "T1, rAB-Elavl", "test": "AlphaScreen saturation (probe length series); EC50 not converged; legend: minimal length for binding is 19 nt; AlphaScreen: 25 mM HEPES pH 7.4, 100 mM NaCl, 0.1% BSA, RT; REMSA: 20 mM HEPES pH 7.5, 50 mM KCl, 450 uM BSA, 0.25% glycerol, RT (gel at 4 C); NMR: 20 mM HEPES"}}, "data": [{"binder": "AUUAUUUAUUAUUUAUUUAUUAUUUA (ssRNA)", "note": "[ARE pos]", "values": [{"measurement": "apparent K (half saturation)", "setting": "rAB-Elavl [1]", "result": 35.6, "unit": "nM"}, {"measurement": "apparent K (half saturation)", "setting": "rAB-Elavl [2]", "result": 35.1, "unit": "nM"}, {"measurement": "Kd", "setting": "rAB-Elavl [3]", "result": 13.2, "unit": "nM"}, {"measurement": "apparent K (half saturation)", "setting": "rAB-Elavl [4]", "result": 0.5, "unit": "nM"}]}, {"binder": "ACCACCCACCACCCACCCACCACCCA (ssRNA)", "note": "[ARE neg]", "values": [{"measurement": "apparent K (half saturation)", "setting": "rAB-Elavl [5]", "result": 257, "unit": "nM"}, {"measurement": "apparent K (half saturation)", "setting": "rAB-Elavl [6]", "result": 946, "unit": "nM"}]}, {"binder": "AUUAUUUAUUAUUUAUUUA (ssRNA)", "note": "[ARE pos 19]", "values": [{"measurement": "apparent K (half saturation)", "setting": "rAB-Elavl [7]", "result": 64.8, "unit": "nM"}]}, {"binder": "AUUAUUUAUUA (ssRNA)", "note": "[ARE pos 11]", "values": [{"measurement": "binding result", "setting": "rAB-Elavl [8]", "result": "no binding"}]}]}
